Test results as given in patent US20240360227A1.

What was measured:
[1] = molecular target: Recombinant human his-tagged IGF R extracellular domain protein (human) (UniProt P08069); experiment: SPR, Ab captured via anti-huIgG Fc, dissociation at pH 6
[2] = molecular target: Recombinant human his-tagged IGF R extracellular domain protein (human) (UniProt P08069); experiment: SPR, Ab captured via anti-huIgG Fc, pH 7.4

Kd [1] [nM] | koff [1] [s⁻¹] | kon [1] [M⁻¹ s⁻¹] | Kd [2] [nM] | koff [2] [s⁻¹] | kon [2] [M⁻¹ s⁻¹] | Binder
1.17 | 0.000109 | 93200 | 0.674 | 5.45e-05 | 80800 | VRDN-02013 (antibody, V domains shown) VH: QVQLQESGPGLVKPSETLSLTCTVSGYSITGGYLWNWIRQPPGKGLEWIGYHSYDGTNNYKPSLKDRVTISRDTSKNQFSLKLSSVTAADTAVYYCARYGRVFFDYWGQGTLVTVSS VL: DIVMTQSPLSLPVTPGEPASISCRSSQSIVHSNGNTYLQWYLQKPGQSPQLLIYKVSNRLYGVPDRFSGSGSGTDFTLKISRVEAEDVGVYYCFQGSHVPWTFGQGTKVEIK
0.961 | 8.79e-05 | 91400 | 0.51 | 4.57e-05 | 89500 | VRDN-02015 (antibody, V domains shown) VH: QVQLQESGPGLVKPSETLSLTCTVSGYSITGGYLWNWIRQPPGKGLEWIGYISHDGTNNYKPSLKDRVTISRDTSKNQFSLKLSSVTAADTAVYYCARYGRVFFDYWGQGTLVTVSS VL: DIVMTQSPLSLPVTPGEPASISCRSSQSIVHSNGNTYLQWYLQKPGQSPQLLIYKVSNRLYGVPDRFSGSGSGTDFTLKISRVEAEDVGVYYCFQGSHVPWTFGQGTKVEIK
1.11 | 0.000153 | 138000 | 0.697 | 6.19e-05 | 88700 | VRDN-02014 (antibody, V domains shown) VH: QVQLQESGPGLVKPSETLSLTCTVSGYSITGGYLWNWIRQPPGKGLEWIGYIHYDGTNNYKPSLKDRVTISRDTSKNQFSLKLSSVTAADTAVYYCARYGRVFFDYWGQGTLVTVSS VL: DIVMTQSPLSLPVTPGEPASISCRSSQSIVHSNGNTYLQWYLQKPGQSPQLLIYKVSNRLYGVPDRFSGSGSGTDFTLKISRVEAEDVGVYYCFQGSHVPWTFGQGTKVEIK
